Measurements reported in article PMC4100105, “A Novel VHH Antibody Targeting the B Cell-Activating Factor for B-Cell Lymphoma” (International Journal of Molecular Sciences, 2014).
Blank lines part the entries; values can stand above or below the binder they belong to.

How the values were obtained:
[1] = target: T1, B cell-activating factor (BAFF) (UniProt Q9Y275, biotin (NHS-LC-Biotin, 3:1 molar ratio of biotin to protein) in the BLI assay; not biotinylated when coated on ELISA plates); test: BLI; Octet RED; biotinylated BAFF (20 ug/mL) loaded on streptavidin biosensors; sdAbs 1.25-20 uM as analyte; PBST (PBS pH 7.4, 0.1% BSA, 0.02% Tween-20); room temperature; association 300 s, dissociation 1500 s; global 1:1 fit; 'relative affinity'; settings: both partners purified
T1 construct: probably a soluble recombinant human BAFF (surmise); The same antigen was used for immunisation, panning, BLI, ELISA and the cell assay; also called B lymphocyte stimulator; BLyS

[2] = target: T1, B cell-activating factor (BAFF); test: ELISA; competition ELISA; BAFF (10 ug/mL) coated; sdAb (0-500 ug/mL) mixed with BCMA (50 ug/mL), 2 h at 37 C; bound BCMA detected with HRP goat anti-human IgG; settings: both partners purified
[3] = target: T1, B cell-activating factor (BAFF)
[4] = target: T1, B cell-activating factor (BAFF); test: cell-based or functional assay
[5] = target: T1, B cell-activating factor (BAFF); test: ELISA; competition ELISA; BAFF (10 ug/mL) coated; sdAb (0-100 ug/mL) mixed with TACI (10 ug/mL), 2 h at 37 C; bound TACI detected with HRP goat anti-human IgG; settings: both partners purified

B2: bafff4 (VHH)
VHH: HVQLVDSGGGLVQAGGSLRLSCTVSGRTSRYAMAWFRQAPGKGREFVAGVNRSGGRPNYSNSVKGRFTISRDNAKNTVYLQMNGLKPEDTAVYYCAAEDRISQSYEYWGQGTQVTVSS
- binding result [3]: binds

B3: baffb11 (VHH)
VHH: HVQLVDSGGGLVQAGGSLRLSCAASGRTFSSYAMGWFRQAPGKEREFVAAISWSGGRTYYADSVKGRFTISRNNAKNTVYLQMNNLKPEDAAVYYCAARSRASLSGTPLSSPSYYRYWGQGTQVTVSS
- binding result [3]: binds

B4: baffh1 (VHH)
VHH: HVQLVDSGGGSVQTGDSLTLSCVQSGRTFRSYAMAWYRQAPGKERELVARISSGYSTNYLDSVKGRFTISRDNDKNTFYLQMNSLRPEDTAVYYCNSALNGRLPGRHWGQGTQVTVSS
- binding result [3]: binds

B6: baff41 (VHH)
VHH: HVQLVDSGGGLVQPGGSLRLSCTASGRTFRDYAMGWFRQAPGKEREFVAAIIGRGASTQYADFVKGRFTISRDNAKNTVYLQMNSLRPEDTAVYYCHAYDPRRNGDYWGQGTQVTVSS
- binding result [3]: binds

B7: anti-BAFF52 (VHH)
VHH: HVQLVDSGGGLVQAGGSLRLSCAASGRSFKNYHMGWFRQAPGKEREFVAAINGRGSRTKYADSVKGRFTISRDNAERTVRLEMNSLKPEDTAVYYCAAGGPEFYRGRLEDYAYWGPGTQVTVSS
notes: Soluble sdAb of about 15 kDa from an immune alpaca library; also called clone 52; anti-BAFF52 sdAb; source: E. coli TG1, periplasm, vector pSJF2, purified (Ni-NTA)
- Kd [1]: 3180 nM
- koff [1]: 0.0182 s⁻¹
- kon [1]: 5710 M⁻¹ s⁻¹

B9: baffb2 (VHH)
VHH: HVQLVDSGGGLVQAGGSLRLSCAASGRSFRRYAMAWFRQTPGKEREFVAAISRSGGSTSYADSVKGRFTISRDNVKNTVYLQMNSLKPEDTAIYYCAADRWGSPTDLRLPRELDYWGQGTHVTVSS
- binding result [3]: binds

Continued, values first:

- Kd [1]: 823 nM
- koff [1]: 0.00239 s⁻¹
- kon [1]: 2900 M⁻¹ s⁻¹
- inhibition ratio of BCMA binding to BAFF at 500 ug/mL sdAb [2]: 33%
B1: anti-BAFFG3 (VHH)
VHH: HVQLVDSGGGLVAGGSLRLSCAASGRTFSMSAVAWFRQAPGKEREFVAAISKSSISTYYADSVKGRFTISRDNARNTVNLQMNSLKPEDTAVYYCNSALNGRLPGRHWGQGTQVTVSS
notes: Soluble sdAb of about 15 kDa from an immune alpaca library; also called clone G3; anti-BAFFG3 sdAb; source: E. coli TG1, periplasm, vector pSJF2, purified (Ni-NTA)

- binding result [3]: binds
B5: baffc6 (VHH)
VHH: HVQLVDSGGGLVQAGGSLRLSCAAPRNTFSRYAMAWYRQAPGKRRESVASISSGGISHYTDSVKGRFTISRDNAKNTVYLQMNSLKPEDSAVYYCAASREWGLLRHRPGYWGQGTQVTVSS

- inhibitory ratio of BAFF-induced (750 ng/mL) Raji cell proliferation, CCK-8 assay, sdAb 0-100 ug/mL; value at 100 ug/mL [4]: 55%
- Kd [1]: 319 nM
- koff [1]: 0.000729 s⁻¹
- kon [1]: 2290 M⁻¹ s⁻¹
- inhibition ratio of TACI binding to BAFF at 100 ug/mL sdAb [5]: 31%
B8: anti-BAFF64 (VHH)
VHH: QVQLVDSGGGLVQAGGSLRLSCVASGALISRRGMGWYRQAPGRQRELVAGISSDGTTNYAQSVEGRFTISRDNAKRSVYLQMNSLKPEDTAVYYCHARTRWKSYWGQGTQVTVSS
notes: Soluble sdAb of about 15 kDa from an immune alpaca library; also called clone 64; anti-BAFF64 sdAb; source: E. coli TG1, periplasm, vector pSJF2, purified (Ni-NTA)
